Measured values taken from US20050070001A1, “Xylosyltransferase and isoforms thereof” (priority 1999, published 2005).

Target: T1, XT-II (Homo sapiens, UniProt Q9H1B5, R305T)
T1 construct: polyhistidine leader of vector pcDNA4/HisMax-TOPO (own knowledge of the vector); made in house; host or cells: CHO-K1, transient transfection with pCG226-XT-II; medium treated with anti-Xpress antibody and protein G agarose beads
T1 sequence (Q9H1B5 46-865 R305T): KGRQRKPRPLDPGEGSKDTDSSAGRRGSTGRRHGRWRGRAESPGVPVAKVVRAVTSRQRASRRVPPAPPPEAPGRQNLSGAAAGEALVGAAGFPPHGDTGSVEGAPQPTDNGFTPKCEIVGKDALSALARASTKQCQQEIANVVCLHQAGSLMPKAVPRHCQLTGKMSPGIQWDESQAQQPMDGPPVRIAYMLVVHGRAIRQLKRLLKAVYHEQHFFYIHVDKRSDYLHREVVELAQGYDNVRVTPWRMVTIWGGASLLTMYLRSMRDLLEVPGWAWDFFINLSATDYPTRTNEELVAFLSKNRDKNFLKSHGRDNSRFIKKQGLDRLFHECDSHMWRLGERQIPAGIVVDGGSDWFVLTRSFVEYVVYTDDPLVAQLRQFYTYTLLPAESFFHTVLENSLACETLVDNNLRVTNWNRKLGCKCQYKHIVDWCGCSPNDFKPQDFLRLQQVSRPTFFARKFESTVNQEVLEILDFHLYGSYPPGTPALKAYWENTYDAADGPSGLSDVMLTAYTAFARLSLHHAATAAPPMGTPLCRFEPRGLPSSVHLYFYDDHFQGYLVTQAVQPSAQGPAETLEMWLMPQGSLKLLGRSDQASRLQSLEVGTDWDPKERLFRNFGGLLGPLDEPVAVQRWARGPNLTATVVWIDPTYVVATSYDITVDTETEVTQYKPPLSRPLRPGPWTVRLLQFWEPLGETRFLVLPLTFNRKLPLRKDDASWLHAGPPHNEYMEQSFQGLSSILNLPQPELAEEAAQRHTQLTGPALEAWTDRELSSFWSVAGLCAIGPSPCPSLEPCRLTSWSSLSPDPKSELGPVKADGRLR
Assay: XT activity assay of XT-II fused to aminoterminal peptide tag, expressed in CHO-K1 cells
Type: biochemical
Source text: The degenerate primers PFF-sense and Lysc-inv1 which were designed upon the amino acid sequence of proteolytic cleaved peptides of human XT-I were used in a PCR reaction with first strand cDNA of placenta poly(A)^+ mRNA as template. […] To clone the complete coding sequence of the novel cDNA, the RACE strategy was employed. The cDNA finally obtained was 3608 bp (FIG. 8A) and contained a single open reading frame encoding a protein of 865 amino acids with a molecular mass of 97.000. The 3′-untranslated region is 850 bp and a 5′-untranslated region of 149 bp was identified with an in-frame stop codon upstream of the ATG codon. […] No detectable XT activity was recovered by the affinity purification from a control transfection sample. The substrate specificity of the recombinant XT-I was similar to that of the XT-I isolated from human body fluids and cell culture supernatants.
Determination of XT activity. Determination of XT activity is based on the incorporation of [14C]-D-xylose into the recombinant bikunin according to a previously described method (Brinkmann et al., 1997, J. Biol. Chem., 272, 11171-11175). For analysis of the substrate specificity of the recombinant xylosyltransferases synthetic peptides containing the XT recognition sequence were used as acceptor. […] Incorporated radioactivity was determined by liquid scintillation counting. […]

B1: XT-II: human xylosyltransferase isoform 2, 865 amino acids, FIG. 8B (protein, UniProt Q9H1B5 1-865, looked up)
chain: MVASARVQKLVRRYKLAIATALAILLLQGLVVWSFSGLEEDEAGEKGRQRKPRPLDPGEGSKDTDSSAGRRGSTGRRHGRWRGRAESPGVPVAKVVRAVTSRQRASRRVPPAPPPEAPGRQNLSGAAAGEALVGAAGFPPHGDTGSVEGAPQPTDNGFTPKCEIVGKDALSALARASTKQCQQEIANVVCLHQAGSLMPKAVPRHCQLTGKMSPGIQWDESQAQQPMDGPPVRIAYMLVVHGRAIRQLKRLLKAVYHEQHFFYIHVDKRSDYLHREVVELAQGYDNVRVTPWRMVTIWGGASLLRMYLRSMRDLLEVPGWAWDFFINLSATDYPTRTNEELVAFLSKNRDKNFLKSHGRDNSRFIKKQGLDRLFHECDSHMWRLGERQIPAGIVVDGGSDWFVLTRSFVEYVVYTDDPLVAQLRQFYTYTLLPAESFFHTVLENSLACETLVDNNLRVTNWNRKLGCKCQYKHIVDWCGCSPNDFKPQDFLRLQQVSRPTFFARKFESTVNQEVLEILDFHLYGSYPPGTPALKAYWENTYDAADGPSGLSDVMLTAYTAFARLSLHHAATAAPPMGTPLCRFEPRGLPSSVHLYFYDDHFQGYLVTQAVQPSAQGPAETLEMWLMPQGSLKLLGRSDQASRLQSLEVGTDWDPKERLFRNFGGLLGPLDEPVAVQRWARGPNLTATVVWIDPTYVVATSYDITVDTETEVTQYKPPLSRPLRPGPWTVRLLQFWEPLGETRFLVLPLTFNRKLPLRKDDASWLHAGPPHNEYMEQSFQGLSSILNLPQPELAEEAAQRHTQLTGPALEAWTDRELSSFWSVAGLCAIGPSPCPSLEPCRLTSWSSLSPDPKSELGPVKADGRLR
modifications: full-length
With B1 the “enzymatic transfer of xylose to the acceptor peptides” value was “no enzymatic transfer of xylose”.
